# Results published in the supplement of paper PMC10724198.
# ± gives the standard deviation of the averaged measurements.
# Test system: Saccharomyces cerevisiae
# Assay: protein stability index of tFT-peptide fusion (C-terminal peptide) (PSI (0-1 scale)); higher = more stable (slower turnover)
# Conditions: genetic background: wild type; temperature: 30 C
# Protocol: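 Multiplexed protein stability (MPS) profiling in S. cerevisiae. Random 12-aa peptides (tFT-X12 library) are fused to the C-terminus of a sfGFP-mCherry tandem fluorescent timer, after mCherry and a GGGS linker. Cells are FACS-sorted into 8 mCherry/sfGFP bins and deep-sequenced. The protein stability index (PSI) is the read-weighted bin average, scaled from 0 (unstable) to 1 (stable). Only peptides with >10 reads are reported; cells were grown at 30 °C in SC-His with glucose.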
# 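Note: PSI is a weighted mean of sequencing reads over stability bins, variants kept only with over 10 reads, mCherry proximal and sfGFP distal, peptide attached via GGGS linker.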
row,Sequence,protein stability index
1,AACGELLKYSLS,0.576 ± 0.011
2,AADNTGRNKGPQ,0.685 ± 0.0095
3,AAEPGGGTALRG,0.637 ± 0.029
4,AAGGPGGPELWG,0.749 ± 0.14
5,AAGLHFYIFRGI,0.669 ± 0.025
6,AAGRRGWGRGRG,0.788 ± 0.15
7,AAGWRPEGSGAF,0.725 ± 0.033
8,AALLSSPPLSPP,0.662 ± 0.062
9,AAPSRASDLARP,0.661 ± 0.087
10,AARCSPSQEDSF,0.697 ± 0.12
11,AARGILLASRRD,0.739 ± 0.092
12,AASGCGRPGCSA,0.663 ± 0.059
13,AAVGELLFTSLV,0.699 ± 0.022
14,AAVPPLSQSPDS,0.674 ± 0.03
15,ACCIFAFHRSLS,0.487 ± 0.032
16,ACFVVDHGPLHL,0.695 ± 0.031
17,ACPLPPLPTPLP,0.736 ± 0.04
18,ACPQPSPSPSQY,0.672 ± 0.048
19,ACRREMISVLYT,0.624 ± 0.0075
20,ACTPHLPLPAPQ,0.706 ± 0.016
21,ACWVAKTGGSPV,0.654 ± 0.012
22,ADAFDRGRISVV,0.792 ± 0.11
23,ADDTFSERIHSK,0.7 ± 0.093
24,ADPNDSPPPASP,0.617 ± 0.026
25,ADRGLVSLAIVG,0.582 ± 0.015

row,Sequence,protein stability index
1,ADRTLLLKQWYG,0.682 ± 0.037
2,AEAVQQGVTIGG,0.68 ± 0.014
3,AEFSGVVIGRWW,0.718 ± 0.054
4,AEGPWMEDGDMG,0.7024 ± 0.0028
5,AELSPGLSVLLL,0.705 ± 0.013
6,AERGRMLSEGKW,0.701 ± 0.053
7,AFCCRSPPSSHP,0.655 ± 0.096
8,AFCPLLLRGTAP,0.697 ± 0.045
9,AFLDISIPSSSL,0.6857 ± 0.0063
10,AFQLGMILSLVA,0.507 ± 0.013
11,AFRKRTFKQESC,0.642 ± 0.0098
12,AFWYACMSLHRS,0.728 ± 0.07
13,AFYERLQEWIRA,0.613 ± 0.014
14,AGAGGGSLGPAG,0.651 ± 0.1
15,AGAGGRAMSDTS,0.693 ± 0.0087
16,AGAGRGVVLGWW,0.684 ± 0.017
17,AGAGVQAYGRGR,0.681 ± 0.015
18,AGANPRVGTFWV,0.664 ± 0.032
19,AGARGVAGWLPR,0.684 ± 0.041
20,AGARVGAPASTR,0.664 ± 0.028
21,AGAWVRVVVGWG,0.737 ± 0.012
22,AGCLSGPVDILL,0.703 ± 0.046
23,AGEDRGSRWVCI,0.699 ± 0.032
24,AGFTATTPIRGV,0.715 ± 0.022
25,AGGAGGCRGWSI,0.705 ± 0.018

row,Sequence,protein stability index
1,AGGGCALGDGWS,0.649 ± 0.021
2,AGGGEASRGQAK,0.596 ± 0.0062
3,AGGGKGGGGGEK,0.649 ± 0.029
4,AGGGRGGGSLRV,0.669 ± 0.034
5,AGGIAVYFGEEE,0.746 ± 0.055
6,AGGLGGSILCLV,0.556 ± 0.025
7,AGGSVCRESLEV,0.694 ± 0.064
8,AGGTMVVVVRSC,0.51175 ± 3.2e-05
9,AGGVCHVSSLLA,0.64 ± 0.021
10,AGGVESGGRSGV,0.679 ± 0.02
11,AGHGGWREAGGG,0.685 ± 0.0076
12,AGLCVSIGVGRG,0.652 ± 0.015
13,AGLGHVPGEHSV,0.613 ± 0.033
14,AGLPGSSFWWVF,0.682 ± 0.058
15,AGLVADGYWLRR,0.6892 ± 0.005
16,AGLWWGGCAAGA,0.804 ± 0.037
17,AGRAPRGSWECS,0.719 ± 0.18
18,AGRGEIVINGKR,0.615 ± 0.07
19,AGRLEGGRRWRV,0.69 ± 0.031
20,AGSDLGLIEGIV,0.685 ± 0.024
21,AGSHPSRLGIFS,0.733 ± 0.033
22,AGSSSLRGRLRG,0.69 ± 0.068
23,AGSTGGGRGRDW,0.76 ± 0.14
24,AGTGAHGLREPR,0.706 ± 0.15
25,AGTHRDLFQRWS,0.711 ± 0.046

row,Sequence,protein stability index
1,AGTVGRGVSGGR,0.5746 ± 0.0044
2,AGVCVAVGGGGF,0.676 ± 0.03
3,AGVDKWLMCEVS,0.695 ± 0.034
4,AGVGPTHVRPPR,0.676 ± 0.0079
5,AGVRGWGIAVTP,0.64 ± 0.046
6,AHGAGCGGRRVA,0.726 ± 0.023
7,AHLPHSSFSWRP,0.707 ± 0.05
8,AHLPSPRPRPPP,0.764 ± 0.013
9,AHYGSNNNGLVF,0.695 ± 0.042
10,AIKGIYPRCYFI,0.697 ± 0.0073
11,AIKHMVSHSPGN,0.683 ± 0.08
12,AILFSASLTLLL,0.598 ± 0.012
13,AILPFGLLPTHR,0.745 ± 0.017
14,AILTLVQEVRKY,0.6203 ± 0.00088
15,AIPLPVLSFPPL,0.737 ± 0.024
16,AIPLYAPSQPCE,0.696 ± 0.027
17,AIRGGPGGDKEP,0.682 ± 0.024
18,AISCPFIRFSSL,0.614 ± 0.0091
19,AITSPLGFGVLG,0.717 ± 0.015
20,AKEENQRKYTRR,0.637 ± 0.13
21,AKGRRRRGRWWG,0.682 ± 0.032
22,AKLVESISEVAT,0.6766 ± 0.0052
23,AKRLYLLTNRND,0.634 ± 0.025
24,AKSKVAGNVGGD,0.669 ± 0.017
25,ALCEVLSKSFEF,0.6617 ± 0.0025

row,Sequence,protein stability index
1,ALCSGCFAFLGA,0.676 ± 0.11
2,ALEFNGLVAGRL,0.727 ± 0.081
3,ALGVRVSVLGVL,0.642 ± 0.0075
4,ALKVMYMHTGKG,0.62 ± 0.041
5,ALLLTLTCGLFF,0.521 ± 0.019
6,ALMITIMNNREF,0.649 ± 0.021
7,ALPLPLLACSPL,0.6268 ± 0.0034
8,ALRLLRFPSPPP,0.628 ± 0.049
9,ALRVSGAYREHS,0.735 ± 0.032
10,ALSPAFSPLFLP,0.668 ± 0.036
11,ALSSVPPCSLPP,0.637 ± 0.016
12,ALSVGGGSGSWY,0.736 ± 0.014
13,ALVQWRVGGCGG,0.709 ± 0.085
14,ALWARSGRVILI,0.674 ± 0.05
15,AMGSGLVWAGPA,0.684 ± 0.03
16,ANQGRRPWRGMC,0.585 ± 0.14
17,ANRSPLFCVTFG,0.695 ± 0.027
18,APACRLTLVSDF,0.752 ± 0.014
19,APARPPVTLSTN,0.671 ± 0.013
20,APARTTPRLPFA,0.724 ± 0.069
21,APDPPGLRGLSP,0.719 ± 0.015
22,APDRLPLSRCPA,0.699 ± 0.02
23,APFMSLSNTIAR,0.677 ± 0.026
24,APFPMVSSLSFL,0.761 ± 0.037
25,APGLPSFRSLFA,0.676 ± 0.016

row,Sequence,protein stability index
1,APHAPPPSFPAP,0.729 ± 0.0097
2,APHPPPPDPPLP,0.697 ± 0.04
3,APKVYVAAYTPL,0.676 ± 0.025
4,APKYPIQEWIKL,0.594 ± 0.031
5,APLFASSASIPL,0.716 ± 0.11
6,APLLQCPILARP,0.588 ± 0.0067
7,APLSLPPPPSPH,0.696 ± 0.033
8,APPALPPLSPFP,0.705 ± 0.091
9,APPAPPTYLAPF,0.729 ± 0.069
10,APPPLLPLRPFR,0.606 ± 0.1
11,APPPLPPARSPP,0.6541 ± 0.0056
12,APPPLPPTPPPL,0.7017 ± 0.0031
13,APPPNSLPPPPP,0.72 ± 0.022
14,APPPPLPAPQLR,0.6186 ± 0.0011
15,APPPPSPPSLAS,0.736 ± 0.074
16,APPPRPPPPPQL,0.67 ± 0.031
17,APPPSPPALVLP,0.641 ± 0.026
18,APRCCPHLLRFR,0.655 ± 0.055
19,APSPRPSRPPPL,0.671 ± 0.034
20,APSQPPTPPPIS,0.665 ± 0.03
21,APSTFRPPTPPS,0.711 ± 0.03
